The values below come from the supplement of paper PMC10126150.

In this data set the test system is ATP. The data set can be described thus: switch fluorescence ratio, 500 uM ATP over buffer (Cy3 cluster intensity, sum of 5 cycles each) (fold (ratio)); higher = stronger signal-on switching upon ATP binding; sequences stand for … in TCGTCGGCAGCGTCAGATGTGTATAAGAGACAGTTTTTTTTTTTTTTTTTTTTTTTTT…TC. As to conditions: aptamer strand: ATP DNA aptamer (quencher-CACCTGGGGGAGTATTGCGGAGGAAGG + anchor), 100 nM annealed; ATP concentration: 500 uM. In short, it runs like this:
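The fluorescence ratio divides summed target-cycle Cy3 intensity by summed buffer-cycle Cy3 intensity for each cluster and is averaged per switch-domain sequence. Cy3-labelled switching-strand clusters on a modified Illumina MiSeq flow-cell were annealed to 100 nM quencher-labelled ATP aptamer, then imaged in selection buffer and again after 15 min with 500 uM ATP at 22 °C. Five such cycles were run, with NaOH stripping and re-annealing between them, and clusters outside 100-1000 RFU were excluded.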

± gives the standard deviation of the averaged measurements.
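Note: ATP exposure 15 min at 22 °C before imaging.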

Take ATGTATTGCG: the switch fluorescence ratio was determined as 0.988 ± 0.044.

On to ATGTCATATG, for which the switch fluorescence ratio was 0.994 ± 0.031.

Take ATGTCCATTA: the switch fluorescence ratio was determined as 0.994 ± 0.01.

Take ATGTCCGTGG: the switch fluorescence ratio was found to be 0.99 ± 0.014.

Take ATGTCGAGGT: the switch fluorescence ratio came out at 1.01 ± 0.035.

As for ATGTCGATGG, the switch fluorescence ratio amounted to 0.9908 ± 0.0065.

ATGTCGGATT: the switch fluorescence ratio is 1.002 ± 0.0021.

With ATGTCGGGCT, the switch fluorescence ratio came out at 0.982 ± 0.042.

On to ATGTCTAAAA, for which the switch fluorescence ratio amounted to 0.9887 ± 0.0065.

As to ATGTCTTTTG, the switch fluorescence ratio amounted to 1.03 ± 0.022.

Regarding ATGTGACAGC, the switch fluorescence ratio was 0.955 ± 0.062.

Take ATGTGAGATA: the switch fluorescence ratio stood at 1.02 ± 0.015.

Consider ATGTGATTGG, for which the switch fluorescence ratio stood at 1.01 ± 0.027.

For ATGTGCAGGC, the switch fluorescence ratio worked out at 0.969 ± 0.026.

As to ATGTGGATTG, the switch fluorescence ratio turned out to be 1.016 ± 0.009.

Turning to ATGTGGCCTG, the switch fluorescence ratio was 0.988 ± 0.056.

As to ATGTGGGGGC, the switch fluorescence ratio was determined as 0.994 ± 0.03.

On to ATGTGGGGTG, for which the switch fluorescence ratio is 1.06 ± 0.053.

For the sequence ATGTGGGTTA, the switch fluorescence ratio came to 1.01 ± 0.022.

In the case of ATGTGGTAGC, the switch fluorescence ratio turned out to be 0.9523 ± 0.004.

Take ATGTGGTCTG: the switch fluorescence ratio was 0.9777 ± 0.0014.

For ATGTGGTGTC, the switch fluorescence ratio turned out to be 1.02 ± 0.015.

Take ATGTGTAGTT: the switch fluorescence ratio came to 0.992 ± 0.019.

Take ATGTGTCCT: the switch fluorescence ratio turned out to be 1.016 ± 0.0039.

With ATGTGTCGTC, the switch fluorescence ratio was found to be 1.01 ± 0.057.

Consider ATGTGTCTGC, for which the switch fluorescence ratio worked out at 1.04 ± 0.035.

As for ATGTGTCTGG, the switch fluorescence ratio was 0.998 ± 0.011.

ATGTGTGGT: the switch fluorescence ratio came to 0.959 ± 0.023.

With ATGTGTGGTT, the switch fluorescence ratio is 1.12 ± 0.15.

ATGTGTTCTG: the switch fluorescence ratio turned out to be 0.931 ± 0.031.

With ATGTGTTGGG, the switch fluorescence ratio was 0.973 ± 0.032.

With ATGTTAAATG, the switch fluorescence ratio came out at 1 ± 0.016.

In the case of ATGTTAAATT, the switch fluorescence ratio was 0.976 ± 0.014.

On to ATGTTAAGGA, for which the switch fluorescence ratio stood at 0.998 ± 0.012.

In the case of ATGTTAGACT, the switch fluorescence ratio came out at 1.021 ± 0.0071.

As to ATGTTAGGGA, the switch fluorescence ratio came out at 1.034 ± 0.0052.

For ATGTTAGGGC, the switch fluorescence ratio is 0.975 ± 0.032.

Consider ATGTTAGTGA, for which the switch fluorescence ratio was 0.979 ± 0.042.

On to ATGTTATATG, for which the switch fluorescence ratio was determined as 1.004 ± 0.0036.

Turning to ATGTTCAAAG, the switch fluorescence ratio is 0.975 ± 0.017.

Consider ATGTTCAAGA, for which the switch fluorescence ratio amounted to 1.01 ± 0.015.

ATGTTCAGTG: the switch fluorescence ratio was 0.985 ± 0.03.

ATGTTCGGCC: the switch fluorescence ratio amounted to 1.012 ± 0.01.

Regarding ATGTTGAGTG, the switch fluorescence ratio turned out to be 0.995 ± 0.031.

On to ATGTTGGGCG, for which the switch fluorescence ratio amounted to 0.996 ± 0.052.

Take ATGTTGGGCT: the switch fluorescence ratio stood at 0.962 ± 0.018.

Regarding ATGTTGGTAC, the switch fluorescence ratio is 1.04 ± 0.02.

In the case of ATGTTGGTCG, the switch fluorescence ratio came to 0.974 ± 0.028.

For the sequence ATGTTGGTGT, the switch fluorescence ratio was 0.991 ± 0.045.

Consider ATGTTTACTG, for which the switch fluorescence ratio amounted to 1.033 ± 0.0082.

Consider ATGTTTATTG, for which the switch fluorescence ratio turned out to be 0.998 ± 0.018.

As to ATGTTTCATT, the switch fluorescence ratio turned out to be 0.9727 ± 0.0052.

ATGTTTGAGG: the switch fluorescence ratio is 0.989 ± 0.029.

Take ATGTTTGGGG: the switch fluorescence ratio is 1.03 ± 0.084.

Take ATGTTTGTCT: the switch fluorescence ratio is 0.97 ± 0.039.

Take ATGTTTTAAA: the switch fluorescence ratio was 0.9756 ± 0.0086.

In the case of ATGTTTTTGT, the switch fluorescence ratio stood at 0.989 ± 0.042.

Regarding ATTAAAATGG, the switch fluorescence ratio was found to be 1.02 ± 0.017.

With ATTAAAGCCC, the switch fluorescence ratio is 1.02 ± 0.039.

For the sequence ATTAAATCGG, the switch fluorescence ratio came out at 1.01 ± 0.016.

Regarding ATTAAATTAA, the switch fluorescence ratio is 1.034 ± 0.01.

Consider ATTAAGAATT, for which the switch fluorescence ratio was 0.9986 ± 0.0027.

ATTAAGCATG: the switch fluorescence ratio was found to be 1.004 ± 0.0088.

On to ATTAAGGGGG, for which the switch fluorescence ratio came out at 0.9982 ± 0.0069.

Consider ATTAAGGGTT, for which the switch fluorescence ratio is 1.02 ± 0.025.

For the sequence ATTAAGTGTA, the switch fluorescence ratio stood at 0.98 ± 0.019.

With ATTAATAAAG, the switch fluorescence ratio worked out at 0.9984 ± 0.0086.

On to ATTAATAGCT, for which the switch fluorescence ratio was determined as 1.05 ± 0.0049.

On to ATTAATAGTG, for which the switch fluorescence ratio is 0.967 ± 0.028.

Turning to ATTAATGGGA, the switch fluorescence ratio turned out to be 0.9986 ± 0.0061.

Turning to ATTAATTAGA, the switch fluorescence ratio stood at 0.975 ± 0.041.

With ATTAATTAGG, the switch fluorescence ratio was 0.989 ± 0.015.

Take ATTAATTTCT: the switch fluorescence ratio was 1 ± 0.024.

In the case of ATTAATTTTA, the switch fluorescence ratio worked out at 1.02 ± 0.041.

As to ATTACCAATT, the switch fluorescence ratio is 2.24 ± 1.8.

Take ATTACCAGGT: the switch fluorescence ratio came to 1.27 ± 0.048.

Turning to ATTACCTATA, the switch fluorescence ratio came to 1.05 ± 0.044.

Take ATTACGGCAG: the switch fluorescence ratio stood at 1.02 ± 0.059.

With ATTACTAGTT, the switch fluorescence ratio came to 0.9996 ± 0.0035.

Regarding ATTACTCGCG, the switch fluorescence ratio is 1.05 ± 0.012.

Consider ATTACTTTGC, for which the switch fluorescence ratio stood at 1.05 ± 0.021.

Consider ATTAGAAAGC, for which the switch fluorescence ratio stood at 0.981 ± 0.039.

ATTAGAATGT: the switch fluorescence ratio turned out to be 1.02 ± 0.023.

For ATTAGATGGT, the switch fluorescence ratio is 1.02 ± 0.024.

For the sequence ATTAGCACGG, the switch fluorescence ratio is 0.997 ± 0.013.

As for ATTAGCAGCA, the switch fluorescence ratio came out at 1.05 ± 0.025.

Consider ATTAGGATAG, for which the switch fluorescence ratio stood at 1 ± 0.054.

Consider ATTAGGATTT, for which the switch fluorescence ratio worked out at 0.998 ± 0.0097.

ATTAGGCATG: the switch fluorescence ratio is 1 ± 0.042.

For ATTAGGTCGG, the switch fluorescence ratio stood at 0.979 ± 0.023.

For the sequence ATTAGGTTAT, the switch fluorescence ratio came to 1 ± 0.048.

On to ATTAGTAGGG, for which the switch fluorescence ratio came out at 0.9807 ± 0.0041.

On to ATTAGTGATG, for which the switch fluorescence ratio stood at 0.989 ± 0.016.

Turning to ATTAGTGTTC, the switch fluorescence ratio is 0.987 ± 0.043.

For the sequence ATTAGTGTTG, the switch fluorescence ratio worked out at 0.956 ± 0.022.

Take ATTAGTGTTT: the switch fluorescence ratio came out at 0.976 ± 0.027.

Take ATTAGTTGGG: the switch fluorescence ratio came to 1.0052 ± 0.00057.

ATTAGTTTTT: the switch fluorescence ratio amounted to 0.9731 ± 0.0076.

For the sequence ATTATAAAAC, the switch fluorescence ratio amounted to 1.03 ± 0.045.

With ATTATAAAAG, the switch fluorescence ratio is 0.989 ± 0.012.

Turning to ATTATAGCGG, the switch fluorescence ratio amounted to 0.9984 ± 0.0073.

Regarding ATTATAGGG, the switch fluorescence ratio worked out at 1 ± 0.015.

Take ATTATAGTGG: the switch fluorescence ratio was found to be 1.04 ± 0.02.

Regarding ATTATAGTTT, the switch fluorescence ratio came to 1.03 ± 0.049.

In the case of ATTATATAGC, the switch fluorescence ratio amounted to 0.996 ± 0.031.

As for ATTATCAGCG, the switch fluorescence ratio turned out to be 1.01 ± 0.019.

As to ATTATCATGT, the switch fluorescence ratio amounted to 1 ± 0.074.

As for ATTATCCAGC, the switch fluorescence ratio is 1.01 ± 0.017.

With ATTATCTGCG, the switch fluorescence ratio was found to be 1 ± 0.011.

As for ATTATCTGTG, the switch fluorescence ratio is 0.97 ± 0.039.

Take ATTATCTTCT: the switch fluorescence ratio stood at 0.994 ± 0.061.

Take ATTATGAAAG: the switch fluorescence ratio was found to be 0.969 ± 0.056.

ATTATGCCG: the switch fluorescence ratio stood at 0.993 ± 0.06.

Regarding ATTATGGTAA, the switch fluorescence ratio was found to be 1 ± 0.018.

Turning to ATTATGTATC, the switch fluorescence ratio was 0.996 ± 0.011.

For the sequence ATTATTAGCT, the switch fluorescence ratio was 0.996 ± 0.012.

On to ATTATTGGTT, for which the switch fluorescence ratio was determined as 1.02 ± 0.029.

On to ATTATTGTGT, for which the switch fluorescence ratio turned out to be 0.9903 ± 0.0075.

As to ATTATTTTGC, the switch fluorescence ratio came out at 0.9464 ± 0.0026.

ATTCAACAAT: the switch fluorescence ratio was 1 ± 0.016.
